The source of these data is US20250361274A1, “PEPTIDE AND PEPTIDE-CONTAINING AGENT” (PEPTIDREAM INC., priority 2022, published 2025).

Numbered stars: 1 amine (or outer) side, 2 acyl side, 3 side chain; on linkers, the order of the positions; unused ones are H or OH. Bridge positions count the residues as written; N and C are the ends. Square brackets hold non-standard residues; d marks the D form. Ends that are not written are not given here. KCOpipzaa = N6-(4-(carboxymethyl)piperazine-1-carbonyl)-L-lysine, O=C(NCCCC[C@H](N[*:1])C(=O)[*:2])N1CCN(CC(=O)[*:3])CC1; pBph3F = (S)-2-amino-3-(3-fluoro-[1,1'-biphenyl]-4-yl)propanoic acid, O=C([C@H](Cc1ccc(-c2ccccc2)cc1F)N[*:1])[*:2]; 3Pal(6-Ph) = N[C@@H](Cc1ccc(-c2ccccc2)nc1)C(=O)O; Phe(4-COOH) = N[C@@H](Cc1ccc(C(=O)O)cc1)C(=O)O; Bip = N[C@@H](Cc1ccc(-c2ccccc2)cc1)C(=O)O; Phe(4-F) = N[C@@H](Cc1ccc(F)cc1)C(=O)O; Phe(4-Me) = Cc1ccc(C[C@H](N)C(=O)O)cc1; Hyp = O=C(O)[C@@H]1C[C@@H](O)CN1; NMeF = CN[C@@H](Cc1ccccc1)C(=O)O; 4Pal = N[C@@H](Cc1ccncc1)C(=O)O; Cha = N[C@@H](CC1CCCCC1)C(=O)O; βAla = NCCC(=O)O

For one assay, the target named is T1, BMP7 (Homo sapiens, UniProt P18075).
T1 sequence (P18075 293-431): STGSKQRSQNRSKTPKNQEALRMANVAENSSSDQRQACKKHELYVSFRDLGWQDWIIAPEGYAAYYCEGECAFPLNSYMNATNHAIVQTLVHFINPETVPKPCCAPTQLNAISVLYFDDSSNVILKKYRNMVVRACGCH
As to the kind of experiment: BMP7 signal transduction inhibitory activity: SMAD1 phosphorylation by BMP7 stimulus, A549 cells. Type of assay: cell-based. The note with it: for aLISA BMP7: inhibition of SMAD1 phosphorylation by BMP7 stimulus, A549 cells, peptides of Synthesis 2, classes A-D, ND; for aLIZA BMP7 (10 nM) % inh: peptide conc. in assay 10, 100, 1000 nM, class symbols. How it is done:
In the present Example, BMP7 signal transduction inhibitory activity of each peptide consisting of an amino acid sequence set forth in any of SEQ ID NOs: 5 to 240 and 243 to 421 synthesized in Example 10 was verified by phosphorylation of SMAD1 caused by BMP7 stimulus. The evaluation was performed using 10 nM of BMP7 instead of BMP 4. Regarding SEQ ID NOs: 5 to 240, the concentrations of the peptides synthesized in the same manner as in Example 2 (shown as 2 in the row of Synthesis) were 1 nM, 10 nM, and 100 nM, and the concentrations of the peptides synthesized in the same manner as in Example 1 (shown as 1 in the row of Synthesis) were 10 nM, 100 nM, and 1,000 nM, similarly with Example 11. […] Regarding SEQ ID NOs: 243 to 273 and SEQ ID NOs: 299 to 321, the test was performed at the concentrations (10, 100, 1,000 nM) described in Table 6. […] Regarding SEQ ID NOs: 274 to 298, the test was performed at the concentrations (100, 300, 1,000 nM) described in Table 6. […] Regarding SEQ ID NOs: 322 to 370 and SEQ ID NOs: 393 to 421, the test was performed at the concentrations (1, 10, 100 nM). […] Regarding SEQ ID NOs: 371 to 391, the test was performed at the concentrations (10, 30, 90 nM). […] The evaluation tests of the signal transduction inhibitory activities of SEQ ID NOs: 87, 177, and 181 are as follows. Specifically, the inhibitory activity of BMP4 was evaluated in the same manner as in Example 11 that used A549 cells. Eight concentrations of the peptides were used at a common ratio of 1/3 starting from 2 nM. The inhibitory activity of BMP7 was evaluated in the same manner as in Example 12. Eight concentrations of the peptides were used at a common ratio of 1/3 starting from 100 nM. Note that recombinant Human Noggin Protein (R&D) as a positive control was used at the same concentration as that of the peptide. […] The inhibitory activity of BMP7 was evaluated using eight concentrations of the peptides at a common ratio of 1/3 starting from 1,000 nM in the same manner as in Example 12.

The target in another assay is T2, BMP4 (Homo sapiens, UniProt P12644).
T2 sequence (P12644 293-408): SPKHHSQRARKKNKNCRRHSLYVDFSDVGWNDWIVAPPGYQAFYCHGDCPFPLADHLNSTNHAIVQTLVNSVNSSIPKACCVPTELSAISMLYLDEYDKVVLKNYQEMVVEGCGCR
Briefly: BMP4 signal transduction inhibitory activity: SMAD1 phosphorylation by BMP4 stimulus, AlphaLISA SureFire, A549 cells. It counts as cell-based. Conditions: for aLISA BMP4: inhibition of SMAD1 phosphorylation by BMP4 stimulus, A549 cells, peptides of Synthesis 2, classes A-C, ND; for aLIZA BMP4 (0.2 nM) % inh: peptide conc. in assay 0.02, 0.2, 2 nM, class symbols. On the procedure: In the present Example, a BMP4 signal transduction inhibitory activity of each peptide consisting of an amino acid sequence set forth in any of SEQ ID NOs: 5 to 240 and 243 to 421 synthesized in Example 10 was verified by phosphorylation of SMAD1 caused by BMP4 stimulus. A549 cells were cultured in MEM (Thermo Fisher Scientific) containing 10% FBS (Thermo Fisher Scientific), 1×Non-essential amino acids (Thermo Fisher Scientific), and 50 μg/mL Gentamicin. After TrypLE (Gibco) was used to peel the cells, seeding was performed in a 96-well plate for adhesion cells so that the number of cells would be 20,000 per well, followed by culturing for 48 hours. After the cells were cultured as described above, the culture medium was replaced with a peptide solution or recombinant Human Noggin Protein (R&D) solution as a positive control diluted to various concentrations in a nutrition-starved culture medium containing 0.1% BSA (Sigma) instead of FBS Thirty minutes after culturing, […], to stimulate it for 60 minutes. The culture medium was removed and the cells were lysed with Lysis Buffer provided with AlphaLISA (registered trademark) SureFire (registered trademark) Ultra SMAD1 (p-[…]/465) Assay kit (PerkinElmer). According to the protocol of the kit, a signal was detected using SpectraMax (registered trademark) Paradigm (registered trademark) multimode microplate reader (Molecular Devices). The obtained signal was analysed using GraphPad Prism (GraphPad Software). The % inhibition was calculated by considering non-stimulation as 100% inhibition and BMP stimulation only as 0% inhibition. Regarding SEQ ID NOs: 5 to 187, the concentrations of the peptides synthesized in the same manner as in Example 2 (shown as 2 in the row of Synthesis) were 0.02 nM, 0.2 nM, and 2 nM, and the concentrations of the peptides synthesized in the same manner as in Example 1 (shown as 1 in the row of Synthesis) were 0.2 nM, 2 nM, and 20 nM. The evaluation results were based on the results of evaluation using the peptides synthesized in the same manner as in Example 2. […] Regarding SEQ ID NOs: 243 to 321, the test was performed at the concentrations described in Table 6. […] Regarding SEQ ID NOs: 322 to 421, the test was performed at the concentrations described in Table 7. […] The evaluation tests of the signal transduction inhibitory activities of SEQ ID NOs: 87, 177, and 181 are as follows. Specifically, the inhibitory activity of BMP4 was evaluated in the same manner as in Example 11 that used A549 cells. Eight concentrations of the peptides were used at a common ratio of 1/3 starting from 2 nM. The inhibitory activity of BMP7 was evaluated in the same manner as in Example 12. Eight concentrations of the peptides were used at a common ratio of 1/3 starting from 100 nM. Note that recombinant Human Noggin Protein (R&D) as a positive control was used at the same concentration as that of the peptide. […] The inhibitory activity of BMP7 was evaluated using eight concentrations of the peptides at a common ratio of 1/3 starting from 1,000 nM in the same manner as in Example 12.

The mark [1] stands for this setting: BMP7 10 nM stimulus, peptide conc. in assay 1, 10, 100 nM.
Where [2] appears, read: BMP4 0.2 nM stimulus, peptide conc. in assay 0.2, 2, 20 nM.
Where [3] appears, read: SMAD1 phosphorylation, BMP7 10 nM, peptide conc. in assay 1, 10, 100 nM.
[4] abbreviates: SMAD1 phosphorylation, BMP4 0.2 nM, peptide conc. in assay 0.2, 2, 20 nM.

Regarding “115 (EKVYVKRFPYPFYFFSCG; not fully specified; MOD_RES 2 K represents N6-(4-(Carboxymethyl) piperazine-1-carbonyl)-L-lysine(KCOpipzaa); MOD_RES 6 K represents N6-(4-(Carboxymethyl) piperazine-1-carbonyl)-L-lysine(KCOpipzaa); MOD_RES 8 F represents (S)-3-(1,1'-Biphenyl-4-yl)-2-aminopropanoic acid(Bph); MOD_RES 12 F represents (S)-3-(1,1'-Biphenyl-4-yl)-2-aminopropanoic acid(Bph); MOD_RES 14 F represents (S)-4-(2-amino-2-carboxyethyl)benzoic aci) [compound 115]”, the “aLISA BMP7” value with BMP7 is “C (showed less than 50% of inhibitory activity in 10 nM-addition zone and showed 50% or more of inhibitory activity in 100 nM-addition zone)”. In addition, the “aLISA BMP4” value with BMP4 is on record as “A (showed an inhibitory activity of 50% or more in a zone to which the peptide was added to in an amount of 0.2 nM)”.

Turning to “301 (ERV[Phe(4-COOH)]V[KCOpipzaa]R[3Pal(6-Ph)][KCOpipzaa]Y[Hyp][pBph3F]Y[Phe(4-COOH)][Phe(4-COOH)]SCG-NH2; not fully specified (N-terminus, bridges); also: cyclic peptide, ring closure not given here) [compound 301]”, the “aLIZA BMP7 (10 nM) % inh” value in the assay with BMP7 (BMP7 10 nM stimulus) is “E (showed less than 30% of inhibitory activity in 100 nM-addition zone and showed 30% or more of inhibitory activity in 1,000 nM-addition zone)”. In addition, in the assay with BMP4 (BMP4 0.2 nM stimulus), the “aLIZA BMP4 (0.2 nM) % inh” value was “C (showed less than 30% of inhibitory activity in 0.2 nM-addition zone and showed 30% or more of inhibitory activity in 2 nM-addition zone)”.

For the substance “392 ([Phe(4-F)]G[NMeF]G[Bip]GDD[Cha]A[NMeF]LHCG-NH2; not fully specified) [compound 392]”, the “aLISA BMP7 (10 nM) % inh” value in the assay with BMP7 (setting [1]) was “D (showed less than 30% of inhibitory activity in 10 nM-addition zone and showed 30% or more of inhibitory activity in 100 nM-addition zone)”. In addition, in the assay with BMP4 (setting [2]), the “aLISA BMP4 (0.2 nM) % inh” value is “A (showed less than 30% of inhibitory activity in 2 nM-peptide-addition zone and showed 30% or more of inhibitory activity in 20 nM-addition zone)”.

Take “266 (QRVYVDR[3Pal(6-Ph)]SYV[Bip][4Pal][Phe(4-COOH)][Phe(4-COOH)]SCG-NH2; not fully specified) [compound 266]”: the “aLIZA BMP7 (10 nM) % inh” value with BMP7 (BMP7 10 nM stimulus) is “ND (the inhibitory activity was less than 30% at the maximum concentration evaluated)”. In addition, the “aLIZA BMP4 (0.2 nM) % inh” value with BMP4 (BMP4 0.2 nM stimulus) is “C (showed less than 30% of inhibitory activity in 0.2 nM-addition zone and showed 30% or more of inhibitory activity in 2 nM-addition zone)”.

“330 (FG[NMeF][dA][Bip]GDD[Cha]A[NMeF]LHCG-NH2; not fully specified (N-terminus, bridges)) [compound 330]”: the “aLISA BMP7 (10 nM) % inh” value with BMP7 (setting [3]) is “D (showed less than 30% of inhibitory activity in 10 nM-addition zone and showed 30% or more of inhibitory activity in 100 nM-addition zone)”. Also, the “aLISA BMP4 (0.2 nM) % inh” value with BMP4 (setting [4]) is “ND (the inhibitory activity was less than 30% at the maximum concentration evaluated)”.

On to “415 (FGFGAGDEAEFLPCAE; not fully specified; MOD_RES 3 F represents Methyl-L-phenylalanine(MeF); MOD_RES 5 A represents (S)-2-Amino-3-(6-phenylpyridin-3-yl)propanoic acid(3Py6Ph); MOD_RES 9 A represents (S)-2-Amino-3-cyclohexylpropanoic acid(Cha); MOD_RES 10 E represents L-2-Amino adipic acid (Hgl); MOD_RES 11 F represents Methyl-L-phenylalanine(MeF); MOD_RES 13 P represents (2S,4S)-4-Hydroxypyrrolidine-2-carboxylic acid(P4Sh); MOD_RES 15 A) [compound 415]”, for which the “aLISA BMP7 (10 nM) % inh” value with BMP7 (setting [1]) was “D (showed less than 30% of inhibitory activity in 10 nM-addition zone and showed 30% or more of inhibitory activity in 100 nM-addition zone)”. Moreover, in the assay with BMP4 (setting [2]), the “aLISA BMP4 (0.2 nM) % inh” value is given as “ND (the inhibitory activity was less than 30% at the maximum concentration evaluated)”.

Turning to “322 ([4Pal]G[NMeF]G[Bip]GDD[Cha]A[NMeF]LHCG-NH2) [compound 322]”, the “aLISA BMP7 (10 nM) % inh” value in the assay with BMP7 (setting [3]) is “D (showed less than 30% of inhibitory activity in 10 nM-addition zone and showed 30% or more of inhibitory activity in 100 nM-addition zone)”. In addition, the “aLISA BMP4 (0.2 nM) % inh” value with BMP4 (setting [4]) was “ND (the inhibitory activity was less than 30% at the maximum concentration evaluated)”.

Regarding “375 ([Phe(4-Me)]G[NMeF]G[Bip]GDD[Cha]A[NMeF]LHCG-NH2; not fully specified) [compound 375]”, the “aLISA BMP7 (10 nM) % inh” value with BMP7 (BMP7 10 nM stimulus, peptide conc. in assay 10, 30, 90 nM) was “F (showed less than 30% of inhibitory activity in 10 nM-addition zone and showed 30% or more of inhibitory activity in 30 nM-addition zone)”. Further, in the assay with BMP4 (BMP4 0.2 nM stimulus, peptide conc. in assay 2, 20, 200 nM), the “aLISA BMP4 (0.2 nM) % inh” value is “B (showed less than 30% of inhibitory activity in 20 nM-addition zone and showed 30% or more of inhibitory activity in 200 nM-addition zone)”.

Take “124 ({CH2CO}-ERV[Phe(4-COOH)]V[KCOpipzaa]R[Bip]SYV[Bip]Y[Phe(4-COOH)][Phe(4-COOH)]SC[βAla][dE]-OH; thioether N-17; not fully specified) [compound 124]”: the “aLISA BMP7” value with BMP7 is “C (showed less than 50% of inhibitory activity in 10 nM-addition zone and showed 50% or more of inhibitory activity in 100 nM-addition zone)”. Besides, the “aLISA BMP4” value in the assay with BMP4 was “A (showed an inhibitory activity of 50% or more in a zone to which the peptide was added to in an amount of 0.2 nM)”.
